Consider one molecule from patent US20230391872A1 (ANAPTYSBIO, published 2023).

Where “and” joins values, the source holds several entries; their conditions need not be identical. Equal values may be shown once.

In assay [1] the target is T1, human BTLA on cells (stably transfected 293c18 cells; human peripheral blood T and B cells) (human, UniProt Q7Z6A9 31-289).
T1 construct: whole, on cells; the cells are named under assay; also called cell surface BTLA; full-length human BTLA
The assay can be described thus: flow cytometry (MFI) on 293c18 cells stably expressing human BTLA, goat anti-human kappa-PE detection, four-parameter fit [left panel (Hu BTLA 293c18 cells), EC50 box]. On the procedure:
293c18 cell clone 1E4 stably expressing human BTLA construct or clone 1G5 stably expressing cynomolgus monkey BTLA were harvested with Accutase solution (Millipore Sigma/Sigma-Aldrich) and washed once with Phosphate-Buffered Saline, 1% BSA. 293c18 cynomolgus monkey BTLA cells were loaded with the lipophilic carbocyanine dye, DiD (2 μM, 1,1′-dioctadecyl-3,3,3′,3′-tetramenthylindodicarbocyanine; ThermoFisher Scientific) by rocking gently for 10 minutes at room temperature. DiD-stained cells were washed in PBS, 1% BSA and equal amounts of human BTLA 293c18 cells and cynomolgus monkey BTLA 293c18-DiD-stained cells were mixed. Cells (2×10⁵ total cells/sample) were incubated with the indicated concentrations of purified 6G3 IgG4 (two production lots, APE10840.03 and APE10840.04 (H Chain SEQ ID NO: 144, L Chain SEQ ID NO: 174)) or human IgG4 isotype control antibody specific for hen egg lysozyme with gentle shaking for 10 minutes at 4° C. in FACS buffer (PBS, 1% BSA, 0.02% sodium azide). […] Cells were washed and resuspended in FACS buffer and analyzed for fluorescence on a BD FACSArray (BD Biosciences). DiD stained cells expressing cynomolgus monkey BTLA (FIG. 3) were analyzed for median fluorescence intensity (MFI) separately from cells expressing human BTLA (FIG. 3). […]

For assay [2], the target named is T2, human BTLA ECD-his (monomeric human BTLA-his) (human, UniProt Q7Z6A9 31-157).
T2 construct: extracellular domain; also called human BTLA extracellular domain
T2 sequence (looked up): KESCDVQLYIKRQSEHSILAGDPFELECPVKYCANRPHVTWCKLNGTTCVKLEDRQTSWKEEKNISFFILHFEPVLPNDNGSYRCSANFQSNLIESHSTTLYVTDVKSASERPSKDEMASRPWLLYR
The assay can be described thus: SPR, Biacore T200, antibody captured on anti-human IgG, monomeric human BTLA-his as analyte, 25 °C, 1:1 model; 6G3 IgG4 (APE10840.05) captured on the chip; human BTLA-his analyte. On the procedure:
Surface plasmon resonance (SPR) analyses were carried out using a Biacore T200 (GE Healthcare Life Sciences). Kinetic constants were determined using a 1:1 binding model in the Biacore T200 Evaluation Software to calculate on- and off-rates (kₐ and kd, respectively), and dissociation constants as a measure of overall affinity (KD). Anti-human IgG (GE Healthcare Life Sciences) was immobilized on a CMS chip using EDC-activated amine coupling chemistry (420 seconds contact at a flow rate of 10 μl/min). Antibodies (APE10585.04 6G3 IgG1 and APE10840.05 6G3 IgG4), each at 0.5 μg/m1) were captured in a 60 second contact with the flow cell using a flow rate of 10 μl/min. Monomeric human BTLA-his or cynomolgus monkey BTLA-his at 60 nM, 20 nM, 6.7 nM and 2.2 nM concentrations was flowed over captured antibody (480 seconds association, 1800 seconds dissociation). Runs were at 25° C. and used buffer containing 10 mM HEPES, pH 7.6, 150 mM NaCl, 3 mM EDTA, 0.05% polysorbate 20 (HBS-EP+, pH 7.6; Teknova) for the mobile phase and all dilutions. At the end of each cycle, bound antigen was removed by regeneration with two successive exposures (60 seconds and 90 seconds) to 3 M MgCl2 (30 μl/min). Sensorgrams and binding constants corresponding to the experiment are shown in FIG. 1 (human BTLA) and FIG. 1 (cynomolgus monkey BTLA). […]

For assay [3], the target named is T1, human BTLA on cells (stably transfected …). The assay is described as follows: competition flow cytometry on 293c18 cells with human BTLA; increase of the binding of DyLight 650-HVEM-Fc (100 nM) with the antibody concentration [panel A]. On the procedure: 293c18 cells, clone 1E4 stably expressing human BTLA were harvested with Accutase solution (Millipore Sigma/Sigma-Aldrich) and washed once with PBS, 1% BSA. Cells were plated at 2×10⁵ /well in U-bottom 96-well plates and placed on ice. Purified antibodies at twice the indicated concentrations were serially diluted 3-fold in FACS buffer (PBS, 1% BSA, 0.02% sodium azide). Antibodies tested were human IgG4 isotype control antibody specific for hen egg lysozyme, a reference BTLA IgG4 antagonist antibody, and 6G3 IgG4 (APE10840.06). Trimeric HVEM/LIGHT complexes were pre-formed by mixing equimolar (60 nM each) amounts of DyLight 650-HVEM human IgG1 Fc and trimeric LIGHT-foldon-his and pre-incubating for 15 minutes at room temperature. Either DyLight 650-HVEM-Fc (final concentration 100 nM; FIG. 6A) or pre-formed DyLight 650-HVEM/LIGHT complexes (final concentration of HVEM/LIGHT, 30 nM each; FIG. 6B) were added to the diluted antibodies (final concentrations of antibodies as indicated) and incubated for 15 minutes on ice. […] Cells were washed once, resuspended in FACS buffer and analyzed for fluorescence on a BD FACSArray (BD Biosciences). Median fluorescence intensities (MFI) were graphed in GraphPad Prism (GraphPad Software, Inc.) and curves fit with log(agonist) vs. response (three parameters) least squares fit. […]

B1: 6G3 IgG4 anti-BTLA antibody (APE10840 / APE12839 / APE13308) (antibody, V domains shown)
VH: QVQLVQSGAEVKKPGSSVKVSCKASGYVFSTSWMNWVRQAPGQGLEWMGRIYPGDADTNYVGKFKGRVTITADKSTTTAYMELSSLRSEDTAVYFCAKSGTFNFGNYRWYFDVWGKGTTVTVSS
VL: AIQLTQSPSSLSASVGDRVTITCRVSENIYSHLAWYQQKPGKAPKLLIYAATNLALGVPSRFSGSGSGTDYTLTISSLQPEDFATYYCQLFWGPPLTFGGGTKVEIKR
notes: Humanized antibody from a mouse hybridoma, tested as human IgG4 (detected with anti-human kappa); Some assays used labelled lots (DyLight 650, AF647, biotin, DyL488); also called 6G3 antibody; APE10840.03
As to B1, the EC50 – broadly, the concentration giving half of the maximal effect – in assay [1] is 1.69 nM and 1.79 nM. For the same molecule, the Kd (commonly the equilibrium constant for the complex coming apart) in assay [2] was approximately 5 nM. Moreover, in assay [3], the EC50 (read off the curve) (as a rule, the concentration needed to bring the measured effect to its halfway point) was approximately 0.7 nM.
